The record followed here is US20260103490A1.

Where no end group is shown, it is not given here. [ ]: non-standard residue; d: D form.

Test [1] has as its target NbALFA^ST (NbALFA clone 1G5). Briefly: off-rate assay: peptide elution from NbALFA^ST resin; tag position N.
Test [2] deals with NbALFA^ST (NbALFA clone 1G5). In words: off-rate assay: peptide elution from NbALFA^ST resin; tag position C.
NbALFA^ST (NbALFA clone 1G5), sequence (VHH, as listed by the source): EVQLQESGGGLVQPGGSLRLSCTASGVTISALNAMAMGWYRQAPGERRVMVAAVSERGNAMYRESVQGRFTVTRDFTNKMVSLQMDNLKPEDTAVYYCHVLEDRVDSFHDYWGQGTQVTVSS

With MSGLEQELRRRLTP[code s] (not fully specified; printed as MSGLEQELRRRLTPs) […s (SEQ ID NO: 110)], the t1/2 in test [1] was < 2 min.

For the molecule GPSGLEQELRRRL [gp…. (SEQ ID NO: 108)], the t1/2 in test [2] was < 2 min.
